Article PMC4829874

Biological target: protein A/G
Test: SPR; real-time, microfluidic cell on the nanostructured gold film, white light and CCD detector, 0.1 Hz; protein A/G (0.5 mg/mL, 1 h, 30 uL/min) immobilised, flushed with PBS; IgG 10 ug/mL injected at 30 uL/min; 10 mM PBS

## IgG (antibody)
  resonance peak shift at 10 ug/mL IgG: 2 nm
